# Data: patent US9937235B2, “Lipidated peptides as anti-obesity agents” (USTAV ORGANICKE CHEMIE A BIOCHEMIE AKADEMIE VED CR, V.V.I, priority 2012, dated 2018)
# Where no end group is shown, it is not given here. [ ]: non-standard residue; d: D form. The star is where a group is joined. Phe(F5) = N[C@@H](Cc1c(F)c(F)c(F)c(F)c1F)C(=O)O; Stearoyl = CCCCCCCCCCCCCCCCCC(=O)*; Palmitoyl = CCCCCCCCCCCCCCCC(=O)*; Myristoyl = CCCCCCCCCCCCCC(=O)*; PheCl2 = dichlorophenylalanine; Lauroyl = CCCCCCCCCCCC(=O)*; PheNO2 = nitrophenylalanine; Decanoyl = CCCCCCCCCC(=O)*; NMeA = CN[C@@H](C)C(=O)O; Nle = CCCC[C@H](N)C(=O)O; Octanoyl = CCCCCCCC(=O)*; Sar = CNCC(=O)O
# T1: human PrRP receptor, GPR10, transfected in CHO cells (human, UniProt P49683 1-370)
# T1 construct: whole, on cells; also called human GPR10 receptor; the human receptor GPR10 in CHO cells
# T1 sequence (looked up): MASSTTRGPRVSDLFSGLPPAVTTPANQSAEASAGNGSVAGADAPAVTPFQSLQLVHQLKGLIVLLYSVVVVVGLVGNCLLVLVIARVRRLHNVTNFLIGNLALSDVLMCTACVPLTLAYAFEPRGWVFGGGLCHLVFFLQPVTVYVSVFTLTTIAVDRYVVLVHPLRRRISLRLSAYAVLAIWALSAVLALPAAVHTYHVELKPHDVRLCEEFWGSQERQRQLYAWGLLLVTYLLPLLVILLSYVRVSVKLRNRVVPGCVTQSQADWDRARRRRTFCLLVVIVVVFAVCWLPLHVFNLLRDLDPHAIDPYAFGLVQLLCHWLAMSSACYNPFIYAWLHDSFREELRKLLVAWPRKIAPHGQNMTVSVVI
# T2: rat PrRP receptor in RC-4B/C cells (rat, UniProt Q64121 1-370)
# T2 construct: whole, on cells; also called the rat receptor; GPR10
# T2 sequence (looked up): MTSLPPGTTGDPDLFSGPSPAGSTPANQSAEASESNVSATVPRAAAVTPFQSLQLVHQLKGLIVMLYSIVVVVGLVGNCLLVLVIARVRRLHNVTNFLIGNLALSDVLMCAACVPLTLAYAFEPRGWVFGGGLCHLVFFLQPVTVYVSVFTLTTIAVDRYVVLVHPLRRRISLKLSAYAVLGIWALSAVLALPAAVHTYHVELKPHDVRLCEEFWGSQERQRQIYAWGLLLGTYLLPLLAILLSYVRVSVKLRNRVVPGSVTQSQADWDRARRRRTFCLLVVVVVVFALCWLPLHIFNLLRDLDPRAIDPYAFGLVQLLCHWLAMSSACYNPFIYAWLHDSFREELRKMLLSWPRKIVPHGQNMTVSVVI
# B1: analog no. 41 (peptide)
# peptide: Myristoyl-TPDINPAWY[NMeA]SRGIRPVGRF-NH2
# SMILES: CCCCCCCCCCCCCC(=O)N[C@H](C(=O)N1CCC[C@H]1C(=O)N[C@@H](CC(=O)O)C(=O)N[C@H](C(=O)N[C@@H](CC(N)=O)C(=O)N1CCC[C@H]1C(=O)N[C@@H](C)C(=O)N[C@@H](Cc1c[nH]c2ccccc12)C(=O)N[C@@H](Cc1ccc(O)cc1)C(=O)N(C)[C@@H](C)C(=O)N[C@@H](CO)C(=O)N[C@@H](CCCNC(=N)N)C(=O)NCC(=O)N[C@H](C(=O)N[C@@H](CCCNC(=N)N)C(=O)N1CCC[C@H]1C(=O)N[C@H](C(=O)NCC(=O)N[C@@H](CCCNC(=N)N)C(=O)N[C@@H](Cc1ccccc1)C(N)=O)C(C)C)[C@@H](C)CC)[C@@H](C)CC)[C@@H](C)O
# B2: analog no. 38 (peptide)
# peptide: TPDINPAWYTGR[Sar]IRPVGRF-NH2
# modifications: N-terminus assumed
# SMILES: CC[C@H](C)[C@H](NC(=O)CN(C)C(=O)[C@H](CCCNC(=N)N)NC(=O)CNC(=O)[C@@H](NC(=O)[C@H](Cc1ccc(O)cc1)NC(=O)[C@H](Cc1c[nH]c2ccccc12)NC(=O)[C@H](C)NC(=O)[C@@H]1CCCN1C(=O)[C@H](CC(N)=O)NC(=O)[C@@H](NC(=O)[C@H](CC(=O)O)NC(=O)[C@@H]1CCCN1C(=O)[C@@H](N)[C@@H](C)O)[C@@H](C)CC)[C@@H](C)O)C(=O)N[C@@H](CCCNC(=N)N)C(=O)N1CCC[C@H]1C(=O)N[C@H](C(=O)NCC(=O)N[C@@H](CCCNC(=N)N)C(=O)N[C@@H](Cc1ccccc1)C(N)=O)C(C)C
# B3: analog no. 35 (peptide)
# peptide: Palmitoyl-SRAHQHS[Nle]ETRTPDINPAWYTGRGIRPVGRY-NH2
# SMILES: CCCCCCCCCCCCCCCC(=O)N[C@@H](CO)C(=O)N[C@@H](CCCNC(=N)N)C(=O)N[C@@H](C)C(=O)N[C@@H](Cc1c[nH]cn1)C(=O)N[C@@H](CCC(N)=O)C(=O)N[C@@H](Cc1c[nH]cn1)C(=O)N[C@@H](CO)C(=O)N[C@@H](CCCC)C(=O)N[C@@H](CCC(=O)O)C(=O)N[C@H](C(=O)N[C@@H](CCCNC(=N)N)C(=O)N[C@H](C(=O)N1CCC[C@H]1C(=O)N[C@@H](CC(=O)O)C(=O)N[C@H](C(=O)N[C@@H](CC(N)=O)C(=O)N1CCC[C@H]1C(=O)N[C@@H](C)C(=O)N[C@@H](Cc1c[nH]c2ccccc12)C(=O)N[C@@H](Cc1ccc(O)cc1)C(=O)N[C@H](C(=O)NCC(=O)N[C@@H](CCCNC(=N)N)C(=O)NCC(=O)N[C@H](C(=O)N[C@@H](CCCNC(=N)N)C(=O)N1CCC[C@H]1C(=O)N[C@H](C(=O)NCC(=O)N[C@@H](CCCNC(=N)N)C(=O)N[C@@H](Cc1ccc(O)cc1)C(N)=O)C(C)C)[C@@H](C)CC)[C@@H](C)O)[C@@H](C)CC)[C@@H](C)O)[C@@H](C)O
# notes: Tyr at position 31 in place of Phe
# B4: analog no. 39 (peptide)
# peptide: Myristoyl-TPDINPAWYTGR[Sar]IRPVGRF-NH2
# SMILES: CCCCCCCCCCCCCC(=O)N[C@H](C(=O)N1CCC[C@H]1C(=O)N[C@@H](CC(=O)O)C(=O)N[C@H](C(=O)N[C@@H](CC(N)=O)C(=O)N1CCC[C@H]1C(=O)N[C@@H](C)C(=O)N[C@@H](Cc1c[nH]c2ccccc12)C(=O)N[C@@H](Cc1ccc(O)cc1)C(=O)N[C@H](C(=O)NCC(=O)N[C@@H](CCCNC(=N)N)C(=O)N(C)CC(=O)N[C@H](C(=O)N[C@@H](CCCNC(=N)N)C(=O)N1CCC[C@H]1C(=O)N[C@H](C(=O)NCC(=O)N[C@@H](CCCNC(=N)N)C(=O)N[C@@H](Cc1ccccc1)C(N)=O)C(C)C)[C@@H](C)CC)[C@@H](C)O)[C@@H](C)CC)[C@@H](C)O
# Target: T1, human PrRP receptor, GPR10, transfected …
# Test: competition with 125I-human PrRP31 on CHO cells with transfected human GPR10
# Protocol: CHO cells with transfected human PrRP receptor, GPR10 (Perkin Elmer, USA) were grown on 24-well plates coated with polyethyleneimine. The cells were grown to the optimal density of 40-80 thousand cells per well.
# (§1) Plates were incubated for 60 minutes at room temperature. After incubation, the cells were solubilized in 0.1 mol/l solution of NaOH and the radioactivity bound to the cells was counted using a γ-counter. The experiments were performed in duplicate and repeated at least three times.
row,Ki,Binder
1,1.59 nM,Myristoyl-SRAHQHS[Nle]ETRTPDINPAWYTGRGIRPVGR[PheNO2]-NH2 [analog no. 28]
2,5.39 nM,Stearoyl-SRAHQHS[Nle]ETRTPDINPAWYTGRGIRPVGRF-NH2 [analog no. 20]
3,2.27 nM,SRAHQHS[Nle]ETRTPDINPAWYTGRGIRPVGR[PheCl2]-NH2 [analog no. 24]
4,2.1 nM,B1
5,262 nM,Myristoyl-SHQRPADTHWYPRG[Nle]FPTIGRITARNGEVSR (printed without a C-terminal amide) [analog no. 31]
6,0.95 nM,Myristoyl-SRAHQHS[Nle]ETRTPDINPAWYTGRGIRPVGR[PheCl2]-NH2 [analog no. 25]
7,3.03 nM,Palmitoyl-SRAHQHS[Nle]ETRTPDINPAWYTGRGIRPVGRF-NH2 [analog no. 19]
8,4.51 nM,B2
9,0.77 nM,Palmitoyl-SRAHQHS[Nle]ETRTPDINPAWYTGRGIRPVGR[PheNO2]-NH2 [analog no. 29]
10,1.53 nM,Octanoyl-SRAHQHS[Nle]ETRTPDINPAWYTGRGIRPVGRF-NH2 [analog no. 15]
11,1.57 nM,B3
12,3.12 nM,B4
13,0.71 nM,Myristoyl-SRAHQHS[Nle]ETRTPDINPAWYTGRGIRPVGRF-NH2 [analog no. 18]
14,1.19 nM,Lauroyl-SRAHQHS[Nle]ETRTPDINPAWYTGRGIRPVGRF-NH2 [analog no. 17]
15,1.92 nM,Palmitoyl-SRAHQHS[Nle]ETRTPDINPAWYTGRGIRPVGR[Phe(F5)]-NH2 [analog no. 33]
16,8.59 nM,SRAHQHS[Nle]ETRTPDINPAWYTGRGIRPVGR[Phe(F5)]-NH2 [analog no. 32]
17,4.8 nM,SRAHQHS[Nle]ETRTPDINPAWYTGRGIRPVGR[PheNO2]-NH2 [analog no. 27]
18,1.05 nM,Palmitoyl-SRAHQHS[Nle]ETRTPDINPAWYTGRGIRPVGR[PheCl2]-NH2 [analog no. 26]
19,1.46 nM,Decanoyl-SRAHQHS[Nle]ETRTPDINPAWYTGRGIRPVGRF-NH2 [analog no. 16]
20,6290 nM,[code f][code r]GVPRIGRGTYWAPNIDPT-NH2 [analog no. 36]

# Target: T2, rat PrRP receptor in RC-4B/C cells
# Test: competition with 125I-rat PrRP31 on RC-4B/C cells
# Protocol: The rat pituitary cell line RC-4B/C (ATCC, Manassas, USA) was grown on 24-well plates which had their bottom coated with polyethyleneimine. The cells were grown to the optimal density of 300-450 thousand per well.
# as §1
# For evaluation of competitive binding experiments, the program Graph Pad Prism Software (San Diego, Calif., USA) was used. A method of nonlinear regression assuming one-site binding was used.
row,Ki,Binder
1,1.97 nM,Myristoyl-SRAHQHS[Nle]ETRTPDINPAWYTGRGIRPVGR[PheNO2]-NH2 [analog no. 28]
2,0.96 nM,Stearoyl-SRAHQHS[Nle]ETRTPDINPAWYTGRGIRPVGRF-NH2 [analog no. 20]
3,3.84 nM,SRAHQHS[Nle]ETRTPDINPAWYTGRGIRPVGR[PheCl2]-NH2 [analog no. 24]
4,0.46 nM,B1
5,123 nM,Myristoyl-SHQRPADTHWYPRG[Nle]FPTIGRITARNGEVSR (printed without a C-terminal amide) [analog no. 31]
6,1.79 nM,Myristoyl-SRAHQHS[Nle]ETRTPDINPAWYTGRGIRPVGR[PheCl2]-NH2 [analog no. 25]
7,0.51 nM,Palmitoyl-SRAHQHS[Nle]ETRTPDINPAWYTGRGIRPVGRF-NH2 [analog no. 19]
8,7.94 nM,B2
9,0.58 nM,Palmitoyl-SRAHQHS[Nle]ETRTPDINPAWYTGRGIRPVGR[PheNO2]-NH2 [analog no. 29]
10,0.98 nM,Octanoyl-SRAHQHS[Nle]ETRTPDINPAWYTGRGIRPVGRF-NH2 [analog no. 15]
11,0.44 nM,B3
12,0.32 nM,B4
13,0.69 nM,Myristoyl-SRAHQHS[Nle]ETRTPDINPAWYTGRGIRPVGRF-NH2 [analog no. 18]
14,0.39 nM,Lauroyl-SRAHQHS[Nle]ETRTPDINPAWYTGRGIRPVGRF-NH2 [analog no. 17]
15,0.51 nM,Palmitoyl-SRAHQHS[Nle]ETRTPDINPAWYTGRGIRPVGR[Phe(F5)]-NH2 [analog no. 33]
16,9.69 nM,SRAHQHS[Nle]ETRTPDINPAWYTGRGIRPVGR[Phe(F5)]-NH2 [analog no. 32]
17,19.9 nM,SRAHQHS[Nle]ETRTPDINPAWYTGRGIRPVGR[PheNO2]-NH2 [analog no. 27]
18,1.3 nM,Palmitoyl-SRAHQHS[Nle]ETRTPDINPAWYTGRGIRPVGR[PheCl2]-NH2 [analog no. 26]
19,0.65 nM,Decanoyl-SRAHQHS[Nle]ETRTPDINPAWYTGRGIRPVGRF-NH2 [analog no. 16]
20,5200 nM,[code f][code r]GVPRIGRGTYWAPNIDPT-NH2 [analog no. 36]
